This is an account of results in article PMC3419727, “Identifying the Hotspots on the Top Faces of WD40-Repeat Proteins from Their Primary Sequences by β-Bulges and DHSW Tetrads” (PLoS ONE, 2012).

By Kd is commonly meant the free concentration of one partner at which half of the binding sites on the other are occupied at equilibrium, for simple one-to-one binding. A low value points to tighter binding.

Common to all, as to experiment: ITC; Fep1 (~1.4 mM) injected, 2 µl each time, into Tup11 WT or mutant (~0.2 mM); 25°C; 1×PBS pH 7.4, 150 mM NaCl; iTC200 (MicroCal); Fep1 into buffer subtracted as background
What all share (conditions): both partners purified

The target in experiment [1] is T1, S. japonicus Tup11 WD40 domain (301–630) Lys575Ala (S. japonicus, UniProt B6JV84 301-630, Lys575Ala).
T1 construct: Tup11, S. japonicus, WD40 domain, amino acids 301-630
T1 sequence (looked up): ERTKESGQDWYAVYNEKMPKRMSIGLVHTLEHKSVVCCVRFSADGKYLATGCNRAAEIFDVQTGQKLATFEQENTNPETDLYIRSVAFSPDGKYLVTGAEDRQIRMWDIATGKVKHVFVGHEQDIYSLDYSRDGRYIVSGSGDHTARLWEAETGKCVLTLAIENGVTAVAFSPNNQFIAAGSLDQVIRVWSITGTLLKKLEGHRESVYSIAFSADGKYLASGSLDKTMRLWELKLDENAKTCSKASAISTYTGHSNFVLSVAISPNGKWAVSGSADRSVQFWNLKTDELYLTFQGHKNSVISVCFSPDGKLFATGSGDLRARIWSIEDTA

Experiment [2] deals with T2, S. japonicus Tup11 WD40 domain (301–630) Tyr382Ala (S. japonicus, UniProt B6JV84 301-630, Tyr382Ala).
T2 construct: Tup11, S. japonicus, WD40 domain, amino acids 301-630
T2 sequence (looked up): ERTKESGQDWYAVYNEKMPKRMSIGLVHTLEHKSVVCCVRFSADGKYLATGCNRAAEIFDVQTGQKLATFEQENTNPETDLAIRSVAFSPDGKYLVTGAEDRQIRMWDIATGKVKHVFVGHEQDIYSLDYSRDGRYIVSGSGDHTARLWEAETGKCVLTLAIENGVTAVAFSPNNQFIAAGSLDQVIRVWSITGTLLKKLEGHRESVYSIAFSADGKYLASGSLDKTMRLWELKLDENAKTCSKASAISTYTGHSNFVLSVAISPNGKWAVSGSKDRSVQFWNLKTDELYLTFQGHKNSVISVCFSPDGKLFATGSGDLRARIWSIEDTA

The target of experiment [3] is T3, S. japonicus Tup11 WD40 domain (amino acids 301–630), wild type (S. japonicus, UniProt B6JV84 301-630).
T3 construct: Tup11, S. japonicus, WD40 domain, amino acids 301-630; also called Tup11 WT
T3 sequence (looked up): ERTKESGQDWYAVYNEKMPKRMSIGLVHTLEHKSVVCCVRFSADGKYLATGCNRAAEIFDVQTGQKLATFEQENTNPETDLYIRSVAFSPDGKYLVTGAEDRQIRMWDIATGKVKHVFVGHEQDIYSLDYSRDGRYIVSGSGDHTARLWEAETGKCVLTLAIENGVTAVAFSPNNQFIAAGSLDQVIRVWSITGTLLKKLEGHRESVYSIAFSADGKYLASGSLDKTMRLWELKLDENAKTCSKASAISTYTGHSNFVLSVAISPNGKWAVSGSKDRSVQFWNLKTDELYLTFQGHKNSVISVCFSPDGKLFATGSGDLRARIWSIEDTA

The target of experiment [4] is T4, S. japonicus Tup11 WD40 domain (301–630) Tyr508Ala (S. japonicus, UniProt B6JV84 301-630, Tyr508 substituted by Ala).
T4 construct: Tup11, S. japonicus, WD40 domain, amino acids 301-630
T4 sequence (looked up): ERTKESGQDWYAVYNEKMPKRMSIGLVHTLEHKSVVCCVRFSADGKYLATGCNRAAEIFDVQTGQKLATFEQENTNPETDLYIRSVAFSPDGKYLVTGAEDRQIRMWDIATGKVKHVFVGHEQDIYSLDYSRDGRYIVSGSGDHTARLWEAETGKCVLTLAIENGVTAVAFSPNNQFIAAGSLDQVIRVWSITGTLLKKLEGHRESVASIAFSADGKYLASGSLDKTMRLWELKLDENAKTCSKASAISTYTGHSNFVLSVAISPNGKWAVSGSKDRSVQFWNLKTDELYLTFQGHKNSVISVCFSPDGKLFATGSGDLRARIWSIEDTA

The target in experiment [5] is T5, S. japonicus Tup11 WD40 domain (301–630) Leu524Ala (S. japonicus, UniProt B6JV84 301-630, Leu524Ala).
T5 construct: Tup11, S. japonicus, WD40 domain, amino acids 301-630
T5 sequence (looked up): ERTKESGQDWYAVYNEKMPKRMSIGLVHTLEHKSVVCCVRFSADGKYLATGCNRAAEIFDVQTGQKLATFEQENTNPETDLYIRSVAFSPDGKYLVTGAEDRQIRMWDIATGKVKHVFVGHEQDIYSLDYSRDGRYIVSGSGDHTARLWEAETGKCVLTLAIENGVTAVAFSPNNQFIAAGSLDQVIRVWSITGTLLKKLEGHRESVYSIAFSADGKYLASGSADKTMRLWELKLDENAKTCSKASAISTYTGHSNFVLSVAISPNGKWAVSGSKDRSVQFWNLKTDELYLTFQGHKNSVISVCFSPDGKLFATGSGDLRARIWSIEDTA

B1: C-terminal region of S. pombe Fep1 (amino acids 319–564) (domain or fragment, UniProt Q10134 319-564, looked up)
chain: AAGEPDNNGKVYYSYGPTQEQSILPLPENKHEGLPPYQNEYVPNGIRANQVVYPGQLVAVGNDSSKQLSESTTSNTDNNGVATANQSNPLGMKFHLPPILPVGESVCLPPRTSAKPRIAEGIASLLNPEEPPSNSDKQPSMSNGPKSEVSPSQSQQAPLIQSSTSPVSLQFPPEVQGSNVDKRNYALNVLSQLRSQHDLMIQELHNLNQHIQQIDEWLRSSDNENMASEHIKSSTPAVVASGALQT
notes: Fep1, GATA-factor, S. pombe, C-terminal region, amino acids 319-564
B1: the “reduction of binding free energy against wild type” value in experiment [1] is approximately 1.9 kcal/mol; in experiment [2], approximately 1.7 kcal/mol. This molecule showed a Kd in experiment [3] of approximately 10 µM. The binding result in experiment [4] and in experiment [5] was “binds” in each case.
